# From doi:10.1101/2022.08.26.505501 (bioRxiv, 2022)
# T1: His-Pcc1 co-expressed with no-tagged SisKae1 (Saccharolobus islandicus REY15A, UniProt F0NF65 1-91)
# T1 sequence (looked up): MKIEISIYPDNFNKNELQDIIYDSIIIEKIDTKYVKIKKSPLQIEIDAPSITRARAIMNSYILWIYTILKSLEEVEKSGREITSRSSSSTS
# T2: co-expressed Kae1-Pcc1 subcomplex (2Kae1:2Pcc1) (Saccharolobus islandicus REY15A, UniProt F0NFC9 1-331; F0NF65 1-91)
# T2 sequence (looked up) 1: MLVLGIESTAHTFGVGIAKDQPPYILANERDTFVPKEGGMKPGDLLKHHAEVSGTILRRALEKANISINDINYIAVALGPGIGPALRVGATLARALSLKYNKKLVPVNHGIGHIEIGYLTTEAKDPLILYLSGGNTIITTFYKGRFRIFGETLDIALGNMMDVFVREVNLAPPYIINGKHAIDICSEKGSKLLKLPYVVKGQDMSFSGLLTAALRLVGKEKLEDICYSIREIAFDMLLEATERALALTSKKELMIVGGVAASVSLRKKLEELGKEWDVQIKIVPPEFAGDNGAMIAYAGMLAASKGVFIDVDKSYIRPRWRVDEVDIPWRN
# T2 sequence (looked up) 2: T1 sequence (looked up)
# B1: no-tagged SisKae1 (enzyme, Saccharolobus islandicus REY15A, UniProt F0NFC9 1-331, looked up)
# chain: T2 sequence (looked up) 1
# B2: His-SisPcc1-like (natural protein, Saccharolobus islandicus REY15A, UniProt F0NIH8 1-81, looked up)
# chain: MIELRILSEHEDAELIIRSLNVDNVNLPEGMSIQTKVEGKELEIVIKMRITKPNDLMTVRNTADEILAHIKALQSSFDAIS
# Columns and labels:
# Test in all cases: SEC
# [1] = target: T1, His-Pcc1 co-expressed with no-tagged …
# [2] = target: Flag-tagged SisKae1 co-expressed with His-tagged SisPcc1-like (Saccharolobus islandicus REY15A)
# no-tagged SisKae1 = target: B1
# [3] = target: T2, co-expressed Kae1-Pcc1 subcomplex …
stoichiometry N [1],stoichiometry N (Pcc1-like per Kae1) [2],stoichiometry N (no-tagged SisKae1),stoichiometry N [3],Binder
1 Kae1:Pcc1 (2:2),,,,B1
,2,1 Kae1:Pcc1-like (1:1),1 Kae1:Pcc1:Pcc1-like (1:1:1),B2
